# Assay: soluble on expression in E. coli; label from the status in PepcDB or PDB records
row,Sequence,soluble on expression in E. coli
1,INAGTDLDNPKDLEVSDPTETTLSLRWRRPVAKFDRYRLTYVSPSGKKNEMEIPVDSTSFILRGLDAGTEYTISLVAEKGRHKSKPTTIKGSTVVGSPKGISFSDITENSATVSWTPPRSRVDSYRVSYVPITGGTPNVVTVDGSKTRTKLVKLVPGVDYNVNIISVKGFEESEPISGILKTALDS,soluble
2,IPFPLSAYTHGGEFVRQLDKRILILDGAMGTMIQRYKLGEADFRGERFAEHHKDLKGDNELLSLVRPDVIAEIHRQYLEAGADVIETNTFGATSIAQGDYDLPELAYEMNLESARLARAACDAYSTPEHPRFVAGALGPQPKTASISPDVNDPGARNVTFDELRAAYVEQLNGLLDGGIDIVLIETIFDTLNAKAAIFAVEEAFEARGVRLPVMISGTVTDASGRILSGQTVEAFWNSVRHARPVTIGLNCALGAALMRPYVAELSKICDTYVCVYPNAGLPNPMAETGFDETPADTSALLEEFAQAGLVNMAGGCCGTTPEHIRAIAGKVAALTPRAVPEVPVKTRLSGLEALNIDDETLFVNVGERTNVTGSKMF,not soluble
3,IPLKSIEVPFEGELLPGYAIISEDKAQDTLIVVGGGDTSREDLFYMLGYSGWEHDYNVLMVDLPGQGKNPNQGLHFEVDARAAISAILDWYQAPTEKIAIAGFSGGGYFTAQAVEKDKRIKAWIASTPIYDVAEVFRISFSTALKAPKTILKWGSKLVTSVNKVAEVNLNKYAWQFGQVDFITSVNEVLEQAQIVDYNKIDVPSLFLVGAGEDSELMRQSQVLYDNFKQRGIDVTLRKFSSESGADAHCQVNNFRLMHYQVFEWLNHIFKKKD,not soluble
4,IQHATASLIQTNTDQELLVVDVTPSFASLWLVPNINDFHQRHPNIRVKILTGDGAVKNIHGESDLHVRCLPLSTHYEYSQLLCEETLLLIGNTNLPKLSDNQAISHYPFIPQTTRPQLWEQFKQENDLECPITYHSVGFEHFYLACEAVRMEKGLALLPDFMAQFSILRGDIQHIGNLKLHSGYGYYVVIPNFRLTSRKVALFHDWLKDKLTHHT,soluble
5,IQQANEEAVTRIIQSKPILVGFDKAINVMPDMTETTILHAGPPITYENMCGPMKGAVQGALVFEGLAKDLADADRVARSGAITFSPCHEHDAVGSMAGVTSPNMYVHIIKNETYGNTAFTNLSEQLAKVLRFGANDQSVVDRLIWMRDVLGPLLHDAMTFCPEGIDLRLMLSQALHMGDECHNRNVAGSTLLVQALTPYMVQTDFSREQLKEVFEFLGSSDYFSGPTWMGAAKCALDAGHNVENSTIVTTMCRNGVEFGIRVSGIGGNHWFTGPAQRVIGPMFAGYTQEDAGLDMGDSAITETYGVGGFAMAAAPAIVPLVGGTVAEALNYSKEMLEITTKENPNVTIPVLDFMGIPTGIDVLKVLETGMLPVINTAIAHKEPGIGMIGAGLTNPPANVFNEALKALVATIN,not soluble
6,IQRQMFPNIEVNYIDVRATYPGASPQEIEESILVKVEESIKDVTGIKKVVSRASRGSAYISIEVDVNADIKRVLDDVNQRIDTISNLPLGMEPINVYQVEWRQDVIEMGLVGDRPLEELKPIAKQIEDELLQLNNVMLVYLSAPEEEIAIEVDPLVLRKYDLTLNDVSNAIRRYSANFSAGEVKTNSGMIAVRIENQYYRGDEFRNIPVKLGANGAKVLLQDIATIKDGFTEEERYFEYSGQNAIYMSVEATRDQNIIPVAQSVRDYIEAKNKTLPSDVQLKILVDMTYYLNGRLDMMLK,not soluble
7,ISDLHPQLQPLAETFLRLCRDQGVDPLLICTWRSSEEQAQLYRRGRDLPGAIVTYARPGESAHNATLHGNPAARAFDVVPLLAGKPICDIDHPHWQVMGR,not soluble
8,ISDPVELLKRAEKKGVPSSGFMKLFSGSDSYKFEEAADLCVQAATIYRLRKELNLAGDSFLKAADYQKKAGNEDEAGNTYVEAYKCFKSGGNSVNAVDSLENAIQIFTHRGQFRRGANFKFELGEILENDLHDYAKAIDCYELAGEWYAQDQSVALSNKCFIKCADLKALDGQYIEASDIYSKLIKSSMGNRLSQWSLKDYFLKKGLCQLAATDAVAAARTLQEGQSEDPNFADSRESNFLKSLIDAVNEGDSEQLSEHCKEFDNFMRLDKWKITILNKIKESIQQQEDDLL,soluble
9,ISGGSSISMMYKYCSRLPHDEFFQPKPEFQFKPVDEFGGTICRITLPANAPISEIESSLLPSTEAAKKDACLKAVHELHNLGVLNDFLLPDSKDEIEDELSD,soluble
10,IVGGYTCEENSLPYQVSLNSGSHFCGGSLISEQWVVSAAHCYKTRIQVRLGEHNIKVLEGNEQFINAAKIIRHPKYNRDTLDNDIMLIKLSSPAVINARVSTISLPTAPPAAGTECLISGWGNTLSFGADYPDELKCLDAPVLTQAECKASYPGKITNSMFCVGFLEGGKDSCQRDAGGPVVCNGQLQGVVSWGHGCAWKNRPGVYTKVYNYVDWIKDTIAANS,soluble
11,IYQMAGLNEDADRNLWLAAFRDPYGKNNLDIASLKKSIAQWAKTQGKTIAPEKVDAVLKDRTGSAVCLTCGKNGKMKMPLKSLAWIQGSSSYSQAEVIEQTEETNSAEISETRTPEVPDVHTPEAQPHLNTQSDGTPTAYTEPAADSSPQVETPDQAASEPVDVLFSIDVIRQGNLRLGN,not soluble
12,KAHGNFPVYRNTDVTFLPTGEAFFEKMKEELLKAKKYIFLEFFIIDEGIMWGEILSILEQKVEEGVEVRILYDGMIEITKLSFDYTKRLEKIGIKAKAFSPISPFISTYYNYRDHRKIVVIDGVVGMTGGVNLADEYINHIELFGHWKDSGIMLKGKAVDSFLLLFLQMWSITEEKMLVAPYLGVHDDLVENEGYVIPYGDSPLDTDKVGENV,not soluble
13,KCETKEKGAITAKELYTMMTDKNISLIIMDARRMQDYQDSCILHSLSVPEEAISPGVTASWIEAHLPDDSKDTWKKRGNVEYVVLLDWFSSAKDLQIGTTLRSLKDALFKWESKTVLRNEPLVLEGGYENWLLCYPQYTTNAKV,soluble
14,KDQIPIILIHGSGGNASSLDKMADQLMNEYRSSNEALTMTVNSEGKIKFEGKLTKDAKRPIIKFGFEQNQATPDDWSKWLKIAMEDLKSRYGFTQMDGVGHSNGGLALTYYAEDYAGDKTVPTLRKLVAIGSPFNDLDPNDNGMDLSFKKLPNSTPQMDYFIKNQTEVSPDLEVLAIAGELSEDNPTDGIVPTISSLATRLFMPGSAKAYIEDIQVGEDAVHQTLHETPKSIEKTYWFLEKFKTDETVIQLDYK,soluble
15,KEKIAILVDVQNVYYTCREAYRSNFDYNQFWYVATQEKEVVSAKAYAIASNDPKQRQFHHILRGVGFEVMLKPYIQRRDGSAKGDWDVGITLDAIEIAPDVDRVILVSGDGDFSLLVERIQQRYNKKVTVYGVPRLTSQTLIDCADNFVAIDDDFL,not soluble
16,KENGKRTEVKIGAKTSVMKEKDGKLFTGKANKETNKVDGANATEDADEGKGLVTAKDVIDAVNKTGWRIKTTDANGQNGDFATVASGTNVTFASGNGTTATVTNGTDGITVKYDAK,soluble
17,KEYSHLPIKGNESNLIDTLEDAISLRVPKNRPFAVALSGGLDSSIIAYILEARLSENAHYYVVGERYPDSVLALLEHLNICLSRVHLIKPPPADELLKLITKTCHITKSYNPSIISNGLATLLLCKAVHQDGIRVMLSGEGADEFFCGYQGMYNGRNDPTEMRANLIKDLHFTELRRLDLISASFSVEARCPFLDQRVTQIAMMLDVKNLCDIPMNIGKTLLRDTFKHLLPHSIINAPKESFDITSGLQKLVIDELQKEFKSERVALRTIFEKTLANY,not soluble
18,KFDGDDPVIPEWTQGGQIIPTMNLKVGDSVYTRVFDQSGENVAYRTELAISNDVLTQAKNWSYALASKINQEQTKLQAGQYSEDKFTPVYGTNPIYLQSNSGLERVEIGYNIETPVPDYSLTVDGLASEYIIGTEPTALDLTLTAEGDLTAELTVYNHHREPLASWTGSIQDGASEQVELTLSKSEPGHHMLVTRIKDTDGNLVDQQTLDFHLKSEEVTPPPSGEYDFVFPEGLSSYTAGTKVLASDGAIYQCKPFPYSGYCVQWSESATQFEPATGSHWEMAWDKLN,not soluble
19,KFGASQDVVKWQEVTSNLPELSKKLMSSSSEPLSDDEMADLTLALRTRLHYQPEDSTGWLLLGRIALANRDVTTAIDSMKKSYALEPKDPDVMLGYAQALMLSQDEMDQATARSLLGKLMQQDYVDLRVFSLLAFDAFERKDYPAAIKYWGIMQQMIGPDDSRYESLSRSIDHARKQMGEVVSPDKSVAVTINVAPEAQLDPNAVLIVSIHRADGSPMPVAAARYPLGSFPRTVVLDDGNAMMQGQKLSSLEKLIVRVRADSDGNVATRDQDWHGESDVVEFGQPVAVTIDKQYQ,not soluble
20,KGSYDLIFGDKNTKNYYAKFAKDHQTHLYQKIKESKDEQFRFVETQETTNNLGN,soluble
21,KGTVCVTNLSTGSKRLGAIAPNSTMLAVRNSADCLLALQQNHADAVISDDAILSGMIAQDPFTHIVGDPIATEQYAVAFAKPRTGRDTAPMIRQVNSTFERIFRDGTWTRTYNHWFGAYLAPQVHPAVHYREER,not soluble
22,KIIVKHVTVIGGGLMGAGIAQVAAATGHTVVLVDQTEDILAKSKKGIEESLRKVAKKKFAENPKAGDEFVAKTLSTIATSTDAASVVHSTDLVVEAIVENLKVKNELFKRLDKRAAEHTIFASNTSSLQITSIANATTRQDRFAGLHFFNPVPVMKLVEVIKTPMTSQKTFESLVDFSKALGKHPVSCKDTPGFIVNRLLVPYLMEAIRLYERGDASKEDIDTAMKLGAGYPMGPFELLDYVGLDTTKFIVDGWHEMDAENPLHQPSPSLNKLVAENKFGKKTGEGFYKYKAA,soluble
23,KILLEPTKVSFWGILRTPFMEQFGNGITPFSVGGQPMQILGLRQAGVSLGEGSSVSLMK,not soluble
24,KLVIAIVQDKDANYLSDQFIDQNVRATKLSTTGGFLQSGNTTFMIGIEEERVPEVLEIIKKASHTREEFMTPSVNMDVNMEGTTAYPIKVQVGGATVLVLPVDQFERF,not soluble
25,KPFNDEKTAKIAEEVQQFYESNATISLNEYLENVGELGYELYLTDGAEKSTYYGGAFRKKDLPDKTIKQVLDGETYHGIDSFDTGIFITGFFDNDVRNTIGVPVQADGKQLALFIRQDPEKQFGE,not soluble
26,KRAGTVCSNCQTSTTTLWRRSPMGDPVCNACGLYYKLHQVNRPLTMRKDGIQTRNRKVSSKGKKRR,soluble
27,KSEKRMKLTLKGGAAVDPDSGLEHSAHVLEKGGKVFSATLGLVDIVKGTNSYYKLQLLEDDKENRYWIFRSWGRVGTVIGSNKLEQMPSKEDAIEHFMKLYEEKTGNAWHSKNFTKYPKKFYPLEI,soluble

# Source: the DeepSol protein solubility set
